Assay results taken from patent US20170355766A1 (Xencor, published 2017).

T1: FcγRIIaR (human, UniProt P12318)
T1 construct: recombinant receptor protein with 6xHis and GST tags; also called R131 FcγRIIa
T1 sequence (receptor, looked up): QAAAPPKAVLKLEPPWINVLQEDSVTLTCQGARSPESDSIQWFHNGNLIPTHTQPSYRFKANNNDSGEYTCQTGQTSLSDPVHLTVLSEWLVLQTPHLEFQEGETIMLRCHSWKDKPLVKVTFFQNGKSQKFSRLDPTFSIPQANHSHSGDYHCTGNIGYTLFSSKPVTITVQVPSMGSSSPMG

T2: human FcγRIIb receptor protein (R&D Systems) (human, UniProt P31994 46-217)
T2 construct: Analyte injected over antibodies captured on a protein A/G chip (Biacore); also called CD32b
T2 sequence (looked up): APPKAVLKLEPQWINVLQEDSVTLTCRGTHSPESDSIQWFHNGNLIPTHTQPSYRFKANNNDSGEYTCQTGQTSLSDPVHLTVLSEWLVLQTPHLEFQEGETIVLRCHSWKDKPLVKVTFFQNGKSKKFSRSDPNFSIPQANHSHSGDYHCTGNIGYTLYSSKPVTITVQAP


How the values were obtained:
FcγRIIaR = biological target: T1, FcγRIIaR; assay: SPR (Biacore)
Method: (§1) Variants were screened for receptor affinity using Biacore™ technology, also referred to as Biacore herein, a surface plasmon resonance (SPR) based technology for studying biomolecular interactions in real time. SPR measurements were performed using a Biacore 3000 instrument (Biacore, Piscataway, N.J.). A protein A/G (Pierce Biotechnology) CM5 biosensor chip (Biacore) was generated using a standard primary amine coupling protocol. All measurements were performed using HBS-EP buffer (10 mM HEPES pH 7.4, 0.15 M NaCl, 3 mM EDTA, 0.005% vol/vol surfactant P20, Biacore). Antibodies at 20 nM or 50 nM in HBS-EP buffer were immobilized on the protein A/G surface and FcγRs were injected. After each cycle, the surface was regenerated by injecting glycine buffer (10 mM, pH 1.5). Data were processed by zeroing time and response before the injection of FcγR and by subtracting appropriate nonspecific signals (response of reference channel and injection of running buffer). Kinetic analyses were performed by global fitting of binding data with a 1:1 Langmuir binding model using BIAevaluation software (Biacore).

[1] = biological target: T2, human FcγRIIb receptor protein (R&D …); assay: SPR (Biacore)
Method: as §1

Row | Binder | Fold FcγRIIaR (FcγRIIaR) [fold] | Fold FcγRIIb [1] [fold] | binding result [1]
1 | A327G (antibody, human IgG1, kappa, HuAM4G7 IgG1 Fc variant) heavy: not shown light: DIVMTQSPATLSLSPGERATLSCRSSKSLQNVNGNTYLYWFQQKPGQSPQLLIYRMSNLNSGVPDRFSGSGSGTEFTLTISSLEPEDFAVYYCMQHLEYPITFGAGTKLEIKRTVAAPSVFIFPPSDEQLKSGTASVVCLLNNFYPREAKVQWKVDNALQSGNSQESVTEQDSKDSTYSLSSTLTLSKADYEKHKVYACEVTHQGLSSPVTKSFNRGEC | 0.319 | 0.353 | –
2 | L235N (antibody, human IgG1, kappa, HuAM4G7 IgG1 Fc variant) heavy: not shown light: DIVMTQSPATLSLSPGERATLSCRSSKSLQNVNGNTYLYWFQQKPGQSPQLLIYRMSNLNSGVPDRFSGSGSGTEFTLTISSLEPEDFAVYYCMQHLEYPITFGAGTKLEIKRTVAAPSVFIFPPSDEQLKSGTASVVCLLNNFYPREAKVQWKVDNALQSGNSQESVTEQDSKDSTYSLSSTLTLSKADYEKHKVYACEVTHQGLSSPVTKSFNRGEC | 0.0356 | – | –
3 | D265E (antibody, human IgG1, kappa, HuAM4G7 IgG1 Fc variant) heavy: not shown light: DIVMTQSPATLSLSPGERATLSCRSSKSLQNVNGNTYLYWFQQKPGQSPQLLIYRMSNLNSGVPDRFSGSGSGTEFTLTISSLEPEDFAVYYCMQHLEYPITFGAGTKLEIKRTVAAPSVFIFPPSDEQLKSGTASVVCLLNNFYPREAKVQWKVDNALQSGNSQESVTEQDSKDSTYSLSSTLTLSKADYEKHKVYACEVTHQGLSSPVTKSFNRGEC | 0.307 | 0.417 | –
4 | S267E/H268D (antibody, human IgG1, kappa, HuAM4G7 IgG1 Fc variant) heavy: not shown light: DIVMTQSPATLSLSPGERATLSCRSSKSLQNVNGNTYLYWFQQKPGQSPQLLIYRMSNLNSGVPDRFSGSGSGTEFTLTISSLEPEDFAVYYCMQHLEYPITFGAGTKLEIKRTVAAPSVFIFPPSDEQLKSGTASVVCLLNNFYPREAKVQWKVDNALQSGNSQESVTEQDSKDSTYSLSSTLTLSKADYEKHKVYACEVTHQGLSSPVTKSFNRGEC | – | 33.3 | –
5 | H268Q (antibody, human IgG1, kappa, HuAM4G7 IgG1 Fc variant) heavy: not shown light: DIVMTQSPATLSLSPGERATLSCRSSKSLQNVNGNTYLYWFQQKPGQSPQLLIYRMSNLNSGVPDRFSGSGSGTEFTLTISSLEPEDFAVYYCMQHLEYPITFGAGTKLEIKRTVAAPSVFIFPPSDEQLKSGTASVVCLLNNFYPREAKVQWKVDNALQSGNSQESVTEQDSKDSTYSLSSTLTLSKADYEKHKVYACEVTHQGLSSPVTKSFNRGEC | 1.58 | – | –
6 | L235P (antibody, human IgG1, kappa, HuAM4G7 IgG1 Fc variant) heavy: not shown light: DIVMTQSPATLSLSPGERATLSCRSSKSLQNVNGNTYLYWFQQKPGQSPQLLIYRMSNLNSGVPDRFSGSGSGTEFTLTISSLEPEDFAVYYCMQHLEYPITFGAGTKLEIKRTVAAPSVFIFPPSDEQLKSGTASVVCLLNNFYPREAKVQWKVDNALQSGNSQESVTEQDSKDSTYSLSSTLTLSKADYEKHKVYACEVTHQGLSSPVTKSFNRGEC | 0.122 | – | –
7 | A327Q (antibody, human IgG1, kappa, HuAM4G7 IgG1 Fc variant) heavy: not shown light: DIVMTQSPATLSLSPGERATLSCRSSKSLQNVNGNTYLYWFQQKPGQSPQLLIYRMSNLNSGVPDRFSGSGSGTEFTLTISSLEPEDFAVYYCMQHLEYPITFGAGTKLEIKRTVAAPSVFIFPPSDEQLKSGTASVVCLLNNFYPREAKVQWKVDNALQSGNSQESVTEQDSKDSTYSLSSTLTLSKADYEKHKVYACEVTHQGLSSPVTKSFNRGEC | 0.634 | 0.011 | –
8 | G236E/S267E (antibody, human IgG1, kappa, HuAM4G7 IgG1 Fc variant) heavy: not shown light: DIVMTQSPATLSLSPGERATLSCRSSKSLQNVNGNTYLYWFQQKPGQSPQLLIYRMSNLNSGVPDRFSGSGSGTEFTLTISSLEPEDFAVYYCMQHLEYPITFGAGTKLEIKRTVAAPSVFIFPPSDEQLKSGTASVVCLLNNFYPREAKVQWKVDNALQSGNSQESVTEQDSKDSTYSLSSTLTLSKADYEKHKVYACEVTHQGLSSPVTKSFNRGEC | 36.5 | 11.4 | –

The remaining lines, values ahead:

Row | Fold FcγRIIaR (FcγRIIaR) [fold] | Fold FcγRIIb [1] [fold] | binding result [1] | Binder
9 | – | 12.1 | – | S267E/L328Q (antibody, human IgG1, kappa, HuAM4G7 IgG1 Fc variant) heavy: not shown light: DIVMTQSPATLSLSPGERATLSCRSSKSLQNVNGNTYLYWFQQKPGQSPQLLIYRMSNLNSGVPDRFSGSGSGTEFTLTISSLEPEDFAVYYCMQHLEYPITFGAGTKLEIKRTVAAPSVFIFPPSDEQLKSGTASVVCLLNNFYPREAKVQWKVDNALQSGNSQESVTEQDSKDSTYSLSSTLTLSKADYEKHKVYACEVTHQGLSSPVTKSFNRGEC
10 | 0.0859 | 0.147 | – | G237Q (antibody, human IgG1, kappa, HuAM4G7 IgG1 Fc variant) heavy: not shown light: DIVMTQSPATLSLSPGERATLSCRSSKSLQNVNGNTYLYWFQQKPGQSPQLLIYRMSNLNSGVPDRFSGSGSGTEFTLTISSLEPEDFAVYYCMQHLEYPITFGAGTKLEIKRTVAAPSVFIFPPSDEQLKSGTASVVCLLNNFYPREAKVQWKVDNALQSGNSQESVTEQDSKDSTYSLSSTLTLSKADYEKHKVYACEVTHQGLSSPVTKSFNRGEC
11 | 0.0859 | 0.147 | – | G236M (antibody, human IgG1, kappa, HuAM4G7 IgG1 Fc variant) heavy: not shown light: DIVMTQSPATLSLSPGERATLSCRSSKSLQNVNGNTYLYWFQQKPGQSPQLLIYRMSNLNSGVPDRFSGSGSGTEFTLTISSLEPEDFAVYYCMQHLEYPITFGAGTKLEIKRTVAAPSVFIFPPSDEQLKSGTASVVCLLNNFYPREAKVQWKVDNALQSGNSQESVTEQDSKDSTYSLSSTLTLSKADYEKHKVYACEVTHQGLSSPVTKSFNRGEC
12 | 0.135 | – | no binding | G236H (antibody, human IgG1, kappa, HuAM4G7 IgG1 Fc variant) heavy: not shown light: DIVMTQSPATLSLSPGERATLSCRSSKSLQNVNGNTYLYWFQQKPGQSPQLLIYRMSNLNSGVPDRFSGSGSGTEFTLTISSLEPEDFAVYYCMQHLEYPITFGAGTKLEIKRTVAAPSVFIFPPSDEQLKSGTASVVCLLNNFYPREAKVQWKVDNALQSGNSQESVTEQDSKDSTYSLSSTLTLSKADYEKHKVYACEVTHQGLSSPVTKSFNRGEC
13 | 0.0859 | 0.147 | – | G236W (antibody, human IgG1, kappa, HuAM4G7 IgG1 Fc variant) heavy: not shown light: DIVMTQSPATLSLSPGERATLSCRSSKSLQNVNGNTYLYWFQQKPGQSPQLLIYRMSNLNSGVPDRFSGSGSGTEFTLTISSLEPEDFAVYYCMQHLEYPITFGAGTKLEIKRTVAAPSVFIFPPSDEQLKSGTASVVCLLNNFYPREAKVQWKVDNALQSGNSQESVTEQDSKDSTYSLSSTLTLSKADYEKHKVYACEVTHQGLSSPVTKSFNRGEC
14 | 0.0859 | 0.147 | – | G236P (antibody, human IgG1, kappa, HuAM4G7 IgG1 Fc variant) heavy: not shown light: DIVMTQSPATLSLSPGERATLSCRSSKSLQNVNGNTYLYWFQQKPGQSPQLLIYRMSNLNSGVPDRFSGSGSGTEFTLTISSLEPEDFAVYYCMQHLEYPITFGAGTKLEIKRTVAAPSVFIFPPSDEQLKSGTASVVCLLNNFYPREAKVQWKVDNALQSGNSQESVTEQDSKDSTYSLSSTLTLSKADYEKHKVYACEVTHQGLSSPVTKSFNRGEC
15 | 0.106 | – | – | G236V (antibody, human IgG1, kappa, HuAM4G7 IgG1 Fc variant) heavy: not shown light: DIVMTQSPATLSLSPGERATLSCRSSKSLQNVNGNTYLYWFQQKPGQSPQLLIYRMSNLNSGVPDRFSGSGSGTEFTLTISSLEPEDFAVYYCMQHLEYPITFGAGTKLEIKRTVAAPSVFIFPPSDEQLKSGTASVVCLLNNFYPREAKVQWKVDNALQSGNSQESVTEQDSKDSTYSLSSTLTLSKADYEKHKVYACEVTHQGLSSPVTKSFNRGEC
16 | 0.081 | 0.147 | – | G237S (antibody, human IgG1, kappa, HuAM4G7 IgG1 Fc variant) heavy: not shown light: DIVMTQSPATLSLSPGERATLSCRSSKSLQNVNGNTYLYWFQQKPGQSPQLLIYRMSNLNSGVPDRFSGSGSGTEFTLTISSLEPEDFAVYYCMQHLEYPITFGAGTKLEIKRTVAAPSVFIFPPSDEQLKSGTASVVCLLNNFYPREAKVQWKVDNALQSGNSQESVTEQDSKDSTYSLSSTLTLSKADYEKHKVYACEVTHQGLSSPVTKSFNRGEC
17 | 0.0859 | 0.147 | – | G236Q (antibody, human IgG1, kappa, HuAM4G7 IgG1 Fc variant) heavy: not shown light: DIVMTQSPATLSLSPGERATLSCRSSKSLQNVNGNTYLYWFQQKPGQSPQLLIYRMSNLNSGVPDRFSGSGSGTEFTLTISSLEPEDFAVYYCMQHLEYPITFGAGTKLEIKRTVAAPSVFIFPPSDEQLKSGTASVVCLLNNFYPREAKVQWKVDNALQSGNSQESVTEQDSKDSTYSLSSTLTLSKADYEKHKVYACEVTHQGLSSPVTKSFNRGEC
18 | 2.04 | – | – | L235Q (antibody, human IgG1, kappa, HuAM4G7 IgG1 Fc variant) heavy: not shown light: DIVMTQSPATLSLSPGERATLSCRSSKSLQNVNGNTYLYWFQQKPGQSPQLLIYRMSNLNSGVPDRFSGSGSGTEFTLTISSLEPEDFAVYYCMQHLEYPITFGAGTKLEIKRTVAAPSVFIFPPSDEQLKSGTASVVCLLNNFYPREAKVQWKVDNALQSGNSQESVTEQDSKDSTYSLSSTLTLSKADYEKHKVYACEVTHQGLSSPVTKSFNRGEC
